Measurements taken from patent US20140087995A1 (published 2014).
One block for each binder: values may come before it. Numbered stars: 1 amine (or outer) side, 2 acyl side, 3 side chain; on linkers, the order of the positions; unused ones are H or OH. Bridge positions count the residues as written; N and C are the ends. Side chains are listed from the residue outwards. Ends that are not written are not given here. * marks the point of attachment. C20 diacid = O=C(O)CCCCCCCCCCCCCCCCCCC(=O)*; γGlu = O=C(O)[C@H](CCC(=O)[*:2])N[*:1]; AEEA = NCCOCCOCC(=O)O

Assays:
[1] = biological target: T1, rat calcitonin receptor (rat, UniProt P32214 25-516); test: SPA competition with 125I-calcitonin, membranes of BHK cells with rat calcitonin receptor (Assay VIII)
T1 construct: whole, on cells; also called rCTR; rat calcitonin (a) receptor
T1 sequence (looked up): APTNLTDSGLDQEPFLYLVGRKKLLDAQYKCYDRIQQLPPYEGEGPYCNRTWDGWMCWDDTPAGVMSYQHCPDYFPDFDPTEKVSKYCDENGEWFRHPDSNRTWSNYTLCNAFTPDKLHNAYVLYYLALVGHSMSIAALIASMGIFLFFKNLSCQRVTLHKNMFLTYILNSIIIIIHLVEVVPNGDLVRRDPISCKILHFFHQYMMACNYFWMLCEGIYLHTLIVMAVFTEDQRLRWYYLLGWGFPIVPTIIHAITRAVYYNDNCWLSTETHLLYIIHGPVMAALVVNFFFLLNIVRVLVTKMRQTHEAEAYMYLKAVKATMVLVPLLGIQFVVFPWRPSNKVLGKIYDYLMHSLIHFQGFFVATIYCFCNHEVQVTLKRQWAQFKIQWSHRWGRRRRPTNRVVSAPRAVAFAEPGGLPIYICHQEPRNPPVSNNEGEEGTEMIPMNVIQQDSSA

[2] = biological target: T2, rat amylin receptor (rat calcitonin receptor + rat RAMP 3) (rat, UniProt P32214 25-516; Q9JJ73 23-147); test: SPA competition with 125I-rat amylin, membranes of BHK cells with rat calcitonin receptor + rat RAMP3 (Assay VI)
T2 construct: whole, on cells; also called rAmylin-R; rat amylin 3(a) receptor
T2 sequence (looked up) 1: T1 sequence (looked up)
T2 sequence (looked up) 2: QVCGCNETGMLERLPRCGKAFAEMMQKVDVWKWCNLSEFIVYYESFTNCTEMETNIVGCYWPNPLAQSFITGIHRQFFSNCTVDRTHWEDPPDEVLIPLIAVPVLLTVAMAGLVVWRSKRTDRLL

[3] = biological target: T3, rat calcitonin receptor (rat, UniProt P32214 25-516); test: ratio of binding IC50s: rat calcitonin receptor / rat amylin receptor (reference)
T3 construct: whole, on cells; Membranes prepared from transiently transfected BHK tk'ts 13 cells (Assay VIII); also called rCTR; rCT
T3 sequence (looked up): T1 sequence (looked up)

[4] = biological target: T4, human calcitonin receptor (human, UniProt P30988 25-474); test: ratio of binding IC50s: human calcitonin receptor / human amylin receptor (reference)
T4 construct: whole, on cells; Membranes prepared from a stably transfected BHK cell line (Assay VII); also called hCTR; hCT
T4 sequence (looked up): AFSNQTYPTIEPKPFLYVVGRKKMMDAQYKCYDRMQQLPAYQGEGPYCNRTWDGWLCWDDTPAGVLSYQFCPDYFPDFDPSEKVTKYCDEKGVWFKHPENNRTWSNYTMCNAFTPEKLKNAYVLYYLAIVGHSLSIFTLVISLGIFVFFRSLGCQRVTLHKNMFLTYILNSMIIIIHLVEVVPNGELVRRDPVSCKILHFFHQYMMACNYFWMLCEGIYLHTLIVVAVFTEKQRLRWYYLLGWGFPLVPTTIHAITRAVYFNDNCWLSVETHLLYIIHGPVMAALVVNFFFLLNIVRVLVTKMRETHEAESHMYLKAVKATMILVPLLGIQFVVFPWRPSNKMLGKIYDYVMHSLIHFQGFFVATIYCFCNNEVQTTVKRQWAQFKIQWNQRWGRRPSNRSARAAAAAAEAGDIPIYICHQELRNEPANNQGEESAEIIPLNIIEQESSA
Procedure: The resulting pellet was resuspended, homogenized and centrifuged (20.000 rpm, 15 min) in a buffer containing 20 mM Na-HEPES and 0.1 mM EDTA (pH 7.4, buffer 2). The resulting pellet was resuspended in buffer 2 and protein concentration was measured (BCA protein Assay, Pierce). The homogenate was kept cold during the whole procedure. The membranes were kept at −80° C. until use. The assay was performed in a 384 well Optiplate (PerkinElmer) in a total volume of 40 ul. Membranes were mixed with SPA beads. Final concentration of membranes 35 ng/μL final and SPA beads was 0.05 mg/well. Test-compounds were dissolved in DMSO and further diluted in assay buffer (50 mM Hepes, pH 7.4, 1 mM CaCl2, 5 mM MgCl₂, 0.1% OA and 0.02% Tween20). […] The final mixture was incubated with shaking at 400 rpm for 120 min at 25° C. prior to centrifugation (1500 rpm, 10 min). Samples were analyzed on TopCounter™ (Packard). The IC₅₀ was calculated using (one site binding competition analysis) GraphPad Prism5 as a measure of receptor affinity.
Membranes were prepared in the following way; the cells were rinsed with PBS and incubated with Versene for approximately 5 min before harvesting. The cells were flushed with PBS and the cell-suspension was centrifuged for 5 min at 1000 rpm. Cells were homogenized (Ultrathurrax) in a buffer containing 20 mM Na-HEPES and 10 mM EDTA (pH 7.4) and centrifuged at 20.000 rpm for 15 min. The resulting pellet was resuspended, homogenized and centrifuged (20.000 rpm, 15 min) in a buffer containing 20 mM Na-HEPES and 0.1 mM EDTA (pH 7.4, buffer 2). The resulting pellet was resuspended in buffer 2 and protein concentration was measured (BCA protein Assay, Pierce). The homogenate was kept cold during the whole procedure. The membranes were kept at −80° C. until use. Assay was performed in a 384 well Optiplate (PerkinElmer) in a total volume of 40 ul. Membranes were mixed with SPA beads.

[5] = biological target: T3, rat calcitonin receptor; test: SPA competition vs 125I-calcitonin, membranes of BHK cells with rat calcitonin receptor (Assay VIII)
[6] = biological target: T5, rat amylin receptor (rat calcitonin receptor + rat RAMP 3) (rat, UniProt P32214 25-516; Q9JJ73 23-147); test: SPA competition vs 125I-rat amylin, membranes of BHK cells with rat calcitonin receptor + rat RAMP3 (Assay VI)
T5 construct: whole, on cells; Membranes prepared from transiently transfected BHK tk'ts 13 cells (Assay VI); also called rAmylin-R; rAmylin
T5 sequence (looked up) 1: T1 sequence (looked up)
T5 sequence (looked up) 2: T2 sequence (looked up) 2
Procedure: The binding assay was performed using scintillation proximity assay (SPA) beads (RPNQ0001) from PerkinElmer and cell membranes from the Amylin 3(a)/CRE-luc cells (as described in Assay (II)) were used. Membranes were prepared in the following way; the cells were rinsed with PBS and incubated with Versene for approximately 5 min before harvesting. The cells were flushed with PBS and the cell-suspension was centrifuged for 5 min at 1000 rpm. Cells were homogenized (ultrathurrax) in a buffer containing 20 mM Na-HEPES and 10 mM EDTA (pH 7.4) and centrifuged at 20.000 rpm for 15 min. The resulting pellet was resuspended, homogenized and centrifuged (20.000 rpm, 15 min) in a buffer containing 20 mM Na-HEPES and 0.1 mM EDTA (pH 7.4, buffer 2). The resulting pellet was resuspended in buffer 2 and protein concentration was measured (BCA protein Assay, Pierce). The homogenate was kept cold during the whole procedure. The membranes were kept at −80° C. until use. The assay was performed in a 384 well Optiplate (PerkinElmer) in a total volume of 40 ul. Membranes were mixed with SPA beads. Final concentration of membranes 35 ng/μL final and SPA beads was 0.05 mg/well. Test-compounds were dissolved in DMSO and further diluted in assay buffer (50 mM Hepes, pH 7.4, 1 mM CaCl2, 5 mM MgCl₂, 0.1% OA and 0.02% Tween20). […] The final mixture was incubated with shaking at 400 rpm for 120 min at 25° C. prior to centrifugation (1500 rpm, 10 min). Samples were analyzed on TopCounter™ (Packard). The IC₅₀ was calculated using (one site binding competition analysis) GraphPad Prism5 as a measure of receptor affinity.
Cells were grown in DMEM with 10% FBS and 1% Pen/Strep. Approximately 48 hours after transfection, the cells were harvested and membranes were prepared.

IC50 [1]: 159 nM
IC50 [2]: 0.335 nM
B1: N^ε1-[(4S)-4-carboxy-4-[[(4S)-4-carboxy-4-(19-carboxynonadecanoylamino)butanoyl]amino]butanoyl]-[Asp14,Arg17,Pro21,Pro27,Arg35]-h-amylin (peptide)
peptide: K([γGlu-γGlu-C20 diacid])CNTATCATQRLADFLRHSSPNFGAIPSSTNVGSRTY-NH2
modifications: disulfide 2-7; N-terminus assumed
SMILES: CC[C@H](C)[C@H](NC(=O)[C@H](C)NC(=O)CNC(=O)[C@H](Cc1ccccc1)NC(=O)[C@H](CC(N)=O)NC(=O)[C@@H]1CCCN1C(=O)[C@H](CO)NC(=O)[C@H](CO)NC(=O)[C@H](Cc1c[nH]cn1)NC(=O)[C@H](CCCNC(=N)N)NC(=O)[C@H](CC(C)C)NC(=O)[C@H](Cc1ccccc1)NC(=O)[C@H](CC(=O)O)NC(=O)[C@H](C)NC(=O)[C@H](CC(C)C)NC(=O)[C@H](CCCNC(=N)N)NC(=O)[C@H](CCC(N)=O)NC(=O)[C@@H](NC(=O)[C@H](C)NC(=O)[C@@H]1CSSC[C@H](NC(=O)[C@@H](N)CCCCNC(=O)CC[C@H](NC(=O)CC[C@H](NC(=O)CCCCCCCCCCCCCCCCCCC(=O)O)C(=O)O)C(=O)O)C(=O)N[C@@H](CC(N)=O)C(=O)N[C@@H]([C@@H](C)O)C(=O)N[C@@H](C)C(=O)N[C@@H]([C@@H](C)O)C(=O)N1)[C@@H](C)O)C(=O)N1CCC[C@H]1C(=O)N[C@@H](CO)C(=O)N[C@@H](CO)C(=O)N[C@H](C(=O)N[C@@H](CC(N)=O)C(=O)N[C@H](C(=O)NCC(=O)N[C@@H](CO)C(=O)N[C@@H](CCCNC(=N)N)C(=O)N[C@H](C(=O)N[C@@H](Cc1ccc(O)cc1)C(N)=O)[C@@H](C)O)C(C)C)[C@@H](C)O
notes: synthetic analogue of human amylin; also called compound 52

Ratio rCT/rAmylin binding [3]: 104
Ratio hCT/hAmylin binding [4]: 65.3
IC50 [5]: 46.8 nM
IC50 [6]: 0.45 nM
B2: N^ε1-[2-[2-[2-[[(4S)-4-carboxy-4-(19-carboxynonadecanoylamino)butanoyl]amino]ethoxy]ethoxy]acetyl]-[His14,Arg17,Pro21,Pro27]-h-amylin (peptide)
peptide: K([AEEA-γGlu-C20 diacid])CNTATCATQRLAHFLRHSSPNFGAIPSSTNVGSNTY-NH2
modifications: disulfide 2-7; N-terminus assumed
SMILES: CC[C@H](C)[C@H](NC(=O)[C@H](C)NC(=O)CNC(=O)[C@H](Cc1ccccc1)NC(=O)[C@H](CC(N)=O)NC(=O)[C@@H]1CCCN1C(=O)[C@H](CO)NC(=O)[C@H](CO)NC(=O)[C@H](Cc1c[nH]cn1)NC(=O)[C@H](CCCNC(=N)N)NC(=O)[C@H](CC(C)C)NC(=O)[C@H](Cc1ccccc1)NC(=O)[C@H](Cc1c[nH]cn1)NC(=O)[C@H](C)NC(=O)[C@H](CC(C)C)NC(=O)[C@H](CCCNC(=N)N)NC(=O)[C@H](CCC(N)=O)NC(=O)[C@@H](NC(=O)[C@H](C)NC(=O)[C@@H]1CSSC[C@H](NC(=O)[C@@H](N)CCCCNC(=O)COCCOCCNC(=O)CC[C@H](NC(=O)CCCCCCCCCCCCCCCCCCC(=O)O)C(=O)O)C(=O)N[C@@H](CC(N)=O)C(=O)N[C@@H]([C@@H](C)O)C(=O)N[C@@H](C)C(=O)N[C@@H]([C@@H](C)O)C(=O)N1)[C@@H](C)O)C(=O)N1CCC[C@H]1C(=O)N[C@@H](CO)C(=O)N[C@@H](CO)C(=O)N[C@H](C(=O)N[C@@H](CC(N)=O)C(=O)N[C@H](C(=O)NCC(=O)N[C@@H](CO)C(=O)N[C@@H](CC(N)=O)C(=O)N[C@H](C(=O)N[C@@H](Cc1ccc(O)cc1)C(N)=O)[C@@H](C)O)C(C)C)[C@@H](C)O
notes: Analogue of human amylin; also called compound 69
